According to publication PMC2723993, “Crystal Structure of Escherichia coli Polynucleotide Phosphorylase Core Bound to RNase E, RNA and Manganese: Implications for Catalytic Mechanism and RNA Degradosome Assembly” (Journal of Molecular Biology, 2009):

B1: Escherichia coli polynucleotide phosphorylase core (PNPase ΔKHΔS1, lacking the C-terminal S1 and KH domains) (domain or fragment, E. coli)
chain: MLNPIVRKFQYGQHTVTLETGMMARQATAAVMVSMDDTAVFVTVVGQKKAKPGQDFFPLTVNYQERTYAAGRIPGSFFRREGRPSEGETLIARLIDRPIRPLFPEGFVNEVQVIATVVSVNPQVNPDIVAMIGASAALSLSGIPFNGPIGAARVGYINDQYVLNPTQDELKESKLDLVVAGTEAAVLMVESEAQLLSEDQMLGAVVFGHEQQQVVIQNINELVKEAGKPRWDWQPEPVNEALNARVAALAEARLSDAYRITDKQERYAQVDVIKSETIATLLAEDETLDENELGEILHAIEKNVVRSRVLAGEPRIDGREKDMIRGLDVRTGVLPRTHGSALFTRGETQALVTATLGTARDAQVLDELMGERTDTFLFHYNFPPYSVGETGMVGSPKRREIGHGRLAKRGVLAVMPDMDKFPYTVRVVSEITESNGSSSMASVCGASLALMDAGVPIKAAVAGIAMGLVKEGDNYVVLSDILGDEDHLGDMDFKVAGSRDGISALQMDIKIEGITKEIMQVALNQAKGARLHILGVMEQAINAPRGDIS
notes: Expression vector from George Mackie; No tag is mentioned; also called PNPase core; PNPase ΔKΔH1; source: E. coli BL21 (DE3), auto-induction, purified (ammonium sulphate, Q-Sepharose, mono-Q)
B2: RNase E recognition micro-domain (residues 1021-1061) (peptide, UniProt P21513 1021-1061, looked up)
peptide: EAPRHSDWQRPTFAFEGKGAAGGHTATHHASAAPARPQPVE
notes: also called RNase E micro-domain; source: synthetic peptide (Clonestar Biotech Ltd), desalted on PD10

Tests used:
[1] = target: the molecule itself; test: crystal structure; co-crystals of 165 uM PNPase core mixed with 246 uM RNase E micro-domain (1021-1061), with or without O2'-methyl RNA, Mn2+ or tungstate; four crystal forms; hanging drop, 20 °C
[2] = target: B2; test: ITC; MicroCal VP-ITC, 25 °C; 200 uM PNPase core injected into 10 uM RNase E micro-domain in the cell; 10 mM Tris pH 7.5, 150 mM NaCl, 1 mM MgCl2; single binding-site model; details: both partners purified
[3] = target: B1; test: as above; details: both partners purified

Binder	stoichiometry N [1]	dH [2]	stoichiometry N [2]	Ka [3]	Kd [3]
B1	3	-21.5 ± 0.52 kcal/mol	1.02 ± 0.02		
B2				956000 M⁻¹	~900 nM
